B3: NrdJa subunit of the split class II ribonucleotide reductase from Pseudomonas aeruginosa (enzyme, UniProt Q9HT76 1-734, looked up)
chain: MLRTVAGFGRPNNHREVNQRMAKTDARSPRTERGTIALQDASQDIWDKKYRLKSKDGTPVDASVDGTWQRVARALADVEDKASREHWYGRFLWALRNGAIPAGRIISNAGALGHKPATSTINCTVSGTIQDSMDNILEKVHEAGLTLKAGCGIGYEFSTLRPRGAYVSGAGAYTSGPLSFMDIYDKMCFTVSSAGGRRGAQMGTFDVSHPDVREFIRAKREDGRLRQFNLSLLITDQFMQAVEQDADWPLVFPVHVKERDEIDLDDPNAVVWREWPIQDDYVQRADGLVACKVYGQVRARHLWDMIMVSTYDYAEPGFILIDRVNELNNNWWCEAIRATNPCGEQPLPPYGSCLLGSVNLTCFVEQPFGDEARFDWDRFREVVRVFTRMLDNVVEINGLPLEQQRQEILGKRRHGMGFLGLGSTLTLLKLRYGSPEACVFTEEVAREMALVGWEVALELAREKGPAPILAQDYEVTAEMLRKRPEMAADGYKAGDRIRGSVLHAKYSRYMQRVAEHAPELIEALAETGARFTHHSSIAPTGTISLSLANNASNGIEPSFAHHYSRNLIREGRKTKEKVEVYSYELLAYRTLVNAQALPDSDDPARRLPDYFITADSVTPAQHMDIQAAAQKWVDSSISKTANVPTDYPFEDFKDIYRYAWHQGLKGCTTFRFNPEAFQGVLVKESDLEKTRYRFELEDGSVVEFKGNEQVEYDGEIHTAANLFDALKEGYYGKY
modifications: biotin linker (0.15 biotin linker/NrdJa monomer) only where NrdJa was immobilised on the streptavidin chip for SPR
notes: NrdJa, large subunit of the split class II ribonucleotide reductase (NrdJ) of Pseudomonas aeruginosa; 734 residues in PA; the nrdJa open reading frame was cloned into pET22; Monomer or dimer according to the allosteric effector (GEMMA); also called PA NrdJa

How the values were obtained:
[1] = substrate: Nc1ccn([C@@H]2O[C@H](COP(=O)(O)OP(=O)(O)OP(=O)(O)O)[C@@H](O)[C@H]2O)c(=O)n1; test: 3H-CTP reduction assay, Michaelis-Menten fit; format: biochemical, Pseudomonas aeruginosa; settings: 1 mM ATP, 100 μM AdoCbl, 30 mM DTT, 10 mM MgCl2, pH 7.5, labelled compound
[2] = molecular target: B3; test: SPR; biotinylated NrdJb immobilised on streptavidin chip, 0-2 uM NrdJa injected; 30 mM Tris-HCl pH 7.0, 10 mM MgCl2, 0.025% P20, 2 mM DTT; with 0.5 mM dATP; steady state fit; apparent Kd; settings: both partners purified
[3] = molecular target: B3; test: SPR; biotinylated NrdJb immobilised on streptavidin chip, 0-2 uM NrdJa injected; 30 mM Tris-HCl pH 7.0, 10 mM MgCl2, 0.025% P20, 2 mM DTT; with 40 uM AdoCbl; steady state fit; apparent Kd; settings: both partners purified
[4] = molecular target: B3; test: SPR; biotinylated NrdJb immobilised on streptavidin chip, 0-2 uM NrdJa injected; 30 mM Tris-HCl pH 7.0, 10 mM MgCl2, 0.025% P20, 2 mM DTT; with 0.5 mM CTP + 40 uM AdoCbl; steady state fit; apparent Kd; settings: both partners purified
[5] = molecular target: B3; test: SPR; biotinylated NrdJb immobilised on streptavidin chip, 0-2 uM NrdJa injected; 30 mM Tris-HCl pH 7.0, 10 mM MgCl2, 0.025% P20, 2 mM DTT; with 0.5 mM dATP + 0.5 mM CTP + 40 uM AdoCbl; steady state fit; apparent Kd; settings: both partners purified
[6] = molecular target: B3; test: SPR; biotinylated NrdJb immobilised on streptavidin chip, 0-2 uM NrdJa injected at 30 ul/min; 30 mM Tris-HCl pH 7.0, 10 mM MgCl2, 0.025% P20, 2 mM DTT; no additive; steady state fit; apparent Kd; settings: both partners purified
[7] = molecular target: B3; test: SPR; biotinylated NrdJb immobilised on streptavidin chip, 0-2 uM NrdJa injected; 30 mM Tris-HCl pH 7.0, 10 mM MgCl2, 0.025% P20, 2 mM DTT; with 0.5 mM CTP; steady state fit; apparent Kd; settings: both partners purified
[8] = molecular target: B3; test: cell-based or functional assay
[9] = molecular target: the molecule itself; test: gas phase electrophoretic macromolecule analysis (GEMMA); 0.02 mg/ml NrdJa in 40 mM ammonium acetate pH 7.8, 0.005% Tween-20, 2 mM DTT; with 50 uM dTTP and 1:1 Mg2+

B1: NrdJa-NrdJb (split class II ribonucleotide reductase, PA NrdJ) (Pseudomonas aeruginosa PAO1) (protein)
chain: MLRTVAGFGRPNNHREVNQRMAKTDARSPRTERGTIALQDASQDIWDKKYRLKSKDGTPVDASVDGTWQRVARALADVEDKASREHWYGRFLWALRNGAIPAGRIISNAGALGHKPATSTINCTVSGTIQDSMDNILEKVHEAGLTLKAGCGIGYEFSTLRPRGAYVSGAGAYTSGPLSFMDIYDKMCFTVSSAGGRRGAQMGTFDVSHPDVREFIRAKREDGRLRQFNLSLLITDQFMQAVEQDADWPLVFPVHVKERDEIDLDDPNAVVWREWPIQDDYVQRADGLVACKVYGQVRARHLWDMIMVSTYDYAEPGFILIDRVNELNNNWWCEAIRATNPCGEQPLPPYGSCLLGSVNLTCFVEQPFGDEARFDWDRFREVVRVFTRMLDNVVEINGLPLEQQRQEILGKRRHGMGFLGLGSTLTLLKLRYGSPEACVFTEEVAREMALVGWEVALELAREKGPAPILAQDYEVTAEMLRKRPEMAADGYKAGDRIRGSVLHAKYSRYMQRVAEHAPELIEALAETGARFTHHSSIAPTGTISLSLANNASNGIEPSFAHHYSRNLIREGRKTKEKVEVYSYELLAYRTLVNAQALPDSDDPARRLPDYFITADSVTPAQHMDIQAAAQKWVDSSISKTANVPTDYPFEDFKDIYRYAWHQGLKGCTTFRFNPEAFQGVLVKESDLEKTRYRFELEDGSVVEFKGNEQVEYDGEIHTAANLFDALKEGYYGKY
notes: E. coli BL21(DE3); NrdJa untagged in pET22, 734 residues; NrdJb 229 residues, codon-optimised, 6xHis in pET21 (C-terminal in results, N-terminal in methods); proposed (NrdJa-NrdJb)2; with Class II (cobalamin-dependent) ribonucleotide-diphosphate reductase subunit, NrdJb
Km [1]: 220 ± 60 µM

B2: NrdJb subunit of the split class II ribonucleotide reductase from Pseudomonas aeruginosa (enzyme, UniProt Q9HT77 1-229, looked up)
chain: MSAVKITQKIKGFKVVNEAEEQALAAAAEAASVVQMDETLERPDTLIGATYKIKSPLFEHALYVTINDMVLNAGTAHEQRRPFEIFINSKNMDHFQWIVALTRIMSAVFRKGGDCTFLVEELKAVFDPRGGYLKKGGIYMPSIVAEIGGVLERHLTAIGLLRGPELDEEQRLFLAEKRAAYEAAQGTSKVEPGEGFPAGAQLCGKCNSMAVVQMDGCATCLNCGHSKCG
modifications: biotin linker (0.05 biotin linker/NrdJb monomer) where NrdJb was immobilised on the streptavidin chip for SPR
notes: NrdJb, small subunit of the split class II ribonucleotide reductase (NrdJ) of Pseudomonas aeruginosa; 229 residues in PA; the gene encoding NrdJb was custom synthesised with codon optimisation for E. coli and cloned into pET21; No cleavage of the tag is described; Probably the whole 229-residue protein; also called PA NrdJb; His-tagged NrdJb; source: E. coli BL21(DE3), pET21, codon-optimised …
Kd [2]: 91 ± 17 nM | Kd [3]: 680 ± 100 nM | Kd [4]: 300 ± 190 nM | Kd [5]: 54 ± 12 nM | Kd [6]: 690 ± 60 nM | Kd [7]: 360 ± 90 nM | stoichiometry from the enzyme activity titration (activity leveled off at approximately equimolar concentration of NrdJa and NrdJb) [8]: 1

B3
stoichiometry N [9]: 2

— publication PMC4520616, “Biochemical Characterization of the Split Class II Ribonucleotide Reductase from Pseudomonas aeruginosa” (PLoS ONE, 2015)
